Laboratory results from the supplement of paper PMC6757056.
± gives the standard deviation of the averaged measurements.

B1: library; a variant is named by its letters at N, in order (parent)
chain: GCUGUCACCGGUGCUUGGUACGUUAUAUUCAGCCGGUCUGAUGAGUCUNNNNNNAGACGAAACAGC

Experiments:
(6R,S)-folinic acid [1] = variants of: B1; test: FACS-Seq fitted mean relative fluorescence mCherry/BFP without ligand (log10 relative fluorescence); HEK293T overexpressing SLC46A1; higher = higher reporter protein expression; settings: without (6R,S)-folinic acid; ligand present: no
In short: (§1)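 Sorting into 6 bins by mCherry/BFP followed 48 h of incubation with or without ligand. The cells were enriched HEK293T libraries lentivirally bearing an mCherry reporter with the ribozyme switch and an EF1α-BFP marker, and bin genomic DNA was PCR-amplified, barcoded and sequenced on MiSeq. Fluorescence is the fitted normal mean of the bin counts. Means were fitted on log10(mCherry/BFP), scaled to five spiked-in control ribozymes.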

(6R,S)-folinic acid [2] = variants of: B1; test: normalized RNA/DNA level without ligand (relative to sTRSVctl = 100) (log10 (% of sTRSVctl)); HEK293T overexpressing SLC46A1; higher = less ribozyme self-cleavage, higher mRNA level; settings: without (6R,S)-folinic acid; ligand present: no
In short: (§2)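 HEK293T cells received ligand, where used, 1 h before being transfected with 4 µg per 6-well well of library plasmids encoding reporter-linked ribozyme switches. After 72 h, RNA was extracted with EDTA and sequenced. RNA level was derived from RNA reads per DNA read, normalized to a spiked-in non-cleaving sequence or the top sequences, then scaled and log-transformed. Values were ×100 then log10, the top set was 25 sequences, and the minimum was 100 DNA reads.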

(6R,S)-folinic acid [3] = variants of: B1; test: FACS-Seq fitted mean relative fluorescence mCherry/BFP with ligand (log10 relative fluorescence); HEK293T overexpressing SLC46A1; ligand concentration (+) FACS-Seq: 6 mM; higher = higher reporter protein expression; settings: with (6R,S)-folinic acid; ligand present: yes
In short: as §1

(6R,S)-folinic acid [4] = variants of: B1; test: normalized RNA/DNA level with ligand (relative to sTRSVctl = 100) (log10 (% of sTRSVctl)); HEK293T overexpressing SLC46A1; ligand concentration (+) RNA-Seq: 6 mM; higher = less ribozyme self-cleavage, higher mRNA level; settings: with (6R,S)-folinic acid; ligand present: yes
In short: as §2

Row | Variant | FACS-Seq fitted mean (log10) ((6R,S)-folinic acid [1]) | normalized RNA/DNA level without ligand (log10) ((6R,S)-folinic acid [2]) | FACS-Seq fitted mean (log10) ((6R,S)-folinic acid [3]) | normalized RNA/DNA level with ligand (log10) ((6R,S)-folinic acid [4])
1 | GCUGGU | 0.447 ± 0.19 | 1.969 ± 0.0056 | 0.172 ± 0.21 | 1.99 ± 0.032
2 | CCGAGC | 0.201 ± 0.25 | 2.049 ± 0.0044 | 0.357 ± 0.22 | 2.01 ± 0.03
3 | ACGUGA | 0.282 ± 0.011 | 1.958 ± 0.012 | 0.173 ± 0.2 | 2.025 ± 0.015
4 | ACGCUU | -0.382 ± 0.065 | 2.057 ± 0.018 | -0.593 ± 0.26 | 2.047 ± 0.0046
5 | GCGGAG | 0.2 ± 0.093 | 1.89 ± 0.022 | 0.18 ± 0.029 | 2.01 ± 0.051
6 | ACUCAA | 0.314 ± 0.088 | 1.973 ± 0.015 | 0.365 ± 0.012 | 2 ± 0.028
7 | ACUCAU | 0.258 ± 0.022 | 2.013 ± 0.0051 | 0.187 ± 0.11 | 2.04 ± 0.029
8 | CCUGAU | -0.195 ± 0.23 | 2.02 ± 0.024 | -0.196 ± 0.058 | 2.05 ± 0.028
9 | UCUUGG | 0.272 ± 0.099 | 1.904 ± 0.0099 | 0.131 ± 0.092 | 1.99 ± 0.022
10 | UCUUGC | 0.264 ± 0.036 | 2.018 ± 0.0075 | 0.449 ± 0.17 | 2.009 ± 0.016
11 | UCUUUU | 0.427 ± 0.12 | 2.005 ± 0.0088 | 0.26 ± 0.18 | 2.027 ± 0.013
12 | GCGUAG | 0.314 ± 0.07 | 1.962 ± 0.0022 | 0.372 ± 0.13 | 2.05 ± 0.022
13 | GCGUAA | 0.297 ± 0.07 | 1.991 ± 0.014 | 0.2 ± 0.11 | 2.04 ± 0.046
14 | GCGUAC | 0.258 ± 0.3 | 1.974 ± 0.0093 | 0.514 ± 0.11 | 2.02 ± 0.022
15 | GCUACA | -0.313 ± 0.09 | 2.017 ± 0.018 | -0.102 ± 0.14 | 2.03 ± 0.05
16 | UGAAUG | 0.0422 ± 0.017 | 1.758 ± 0.0067 | 0.2668 ± 0.0023 | 1.98 ± 0.021
17 | ACUUGG | 0.457 ± 0.11 | 1.898 ± 0.0091 | 0.649 ± 0.022 | 2 ± 0.049
18 | GCGAUG | 0.371 ± 0.13 | 1.959 ± 0.008 | 0.407 ± 0.055 | 2.02 ± 0.043

Row | Variant | FACS-Seq fitted mean (log10) ((6R,S)-folinic acid [1]) | normalized RNA/DNA level without ligand (log10) ((6R,S)-folinic acid [2]) | FACS-Seq fitted mean (log10) ((6R,S)-folinic acid [3]) | normalized RNA/DNA level with ligand (log10) ((6R,S)-folinic acid [4])
19 | UCGUUG | 0.531 ± 0.029 | 1.881 ± 9.4e-05 | 0.5984 ± 0.0051 | 2.006 ± 0.0038
20 | GCGUGG | 0.353 ± 0.032 | 1.968 ± 0.0025 | 0.444 ± 0.14 | 2.06 ± 0.046
21 | ACGGCA | 0.0556 ± 0.13 | 2.02 ± 0.026 | 0.139 ± 0.39 | 2.04 ± 0.029
22 | GCUGCC | 0.382 ± 0.084 | 2.08 ± 0.0024 | 0.484 ± 0.32 | 2.042 ± 0.0033
23 | GGACGA | 0.242 ± 0.039 | 2.022 ± 0.011 | 0.493 ± 0.027 | 2.042 ± 0.011
24 | UCGUCG | 0.35 ± 0.044 | 2.02 ± 0.04 | 0.455 ± 0.16 | 2.06 ± 0.011
25 | GCUCAC | 0.502 ± 0.15 | 2.046 ± 0.0078 | 0.372 ± 0.23 | 2.032 ± 0.01
26 | GCUCAU | -0.192 ± 0.045 | 2.02 ± 0.029 | -0.09 ± 0.67 | 2.009 ± 0.013
27 | GCUCAA | 0.44 ± 0.027 | 1.978 ± 0.0021 | 0.374 ± 0.1 | 1.985 ± 0.013
28 | CCCUUC | 0.28 ± 0.13 | 2.141 ± 0.0043 | 0.0122 ± 0.3 | 2.05 ± 0.035
29 | CCGGUU | 0.218 ± 0.017 | 2.038 ± 0.016 | -0.22 ± 0.1 | 2.01 ± 0.018
30 | UCGACU | 0.225 ± 0.028 | 2.011 ± 0.0057 | 0.701 ± 0.28 | 2.01 ± 0.022
31 | ACGGUU | 0.41 ± 0.022 | 1.99 ± 0.02 | 0.495 ± 0.047 | 2.01 ± 0.025
32 | CCUCCA | 0.578 ± 0.057 | 2.02 ± 0.031 | 0.469 ± 0.016 | 2.04 ± 0.027
33 | CCUAGC | 0.339 ± 0.022 | 2.075 ± 0.011 | 0.3 ± 0.46 | 2.053 ± 0.006
34 | ACGAUC | 0.555 ± 0.16 | 2.062 ± 0.0089 | 0.363 ± 0.0082 | 2.038 ± 0.0079
35 | GCUUUA | 0.213 ± 0.02 | 1.99 ± 0.026 | 0.0416 ± 0.19 | 1.98 ± 0.05
36 | GGAAUU | 0.362 ± 0.1 | 2.046 ± 0.0046 | 0.236 ± 0.27 | 2.061 ± 0.016
